Reference: patent US20240376185A1 (SMIVET B V, published 2024)

B1: SVT16L (VHH)
VHH: QVQLQESGGGSVQAGDSLRLSCAASGRTISNYAMGWFRQAPGKQREFVAAISRSDNTYYTDSVKGRFTISRDNAKNTLYLQMNSLKPEETAVYYCAADPNLMYESKWKYRALEAWGQGTLVTVSS
B2: SVT16-L123Q-GS2-SVA12M2-H6 (bispecific antibody)
chain: QVQLQESGGGSVQAGDSLRLSCAASGRTISNYAMGWFRQAPGKQREFVAAISRSDNTYYTDSVKGRFTISRDNAKNTLYLQMNSLKPEETAVYYCAADPNLMYESKWKYRALEAWGQGTQVTVSSGGGGSGGGSEVQLVESGGGLVQAGGSLRLSCAASGRTFSYYPMAWFRQAPGQEREFVAAIIGADTTYYADSLKGRFTISRDNAKNMVYLQMNSLKPEDTAVYYCAARNTYWSDVYYREGQYTNWGQGTQVTVSSHHHHHH
B3: SVA16 (VHH, not shown: large carriers)
VHH: QVQLQESGGGVVQAGGSLRLSCAASGRTVSSSAMGWFRLAPGKEREFVVGISRSGGSIFYADSVKGRFTISRKNAKNTVDLQMNSLKPEDTAVYYCAAGYRPGYGDYGRVFYREDEYDDWGQGTQVTVSS
B4: SVT15L-3FW4M (VHH)
VHH: QVQLQESGGGLVQTGGSLRLSCRASGRAFANYHFGWFRQAPGKDREFVASISWKGGSTYYANFALGRFTSSVDRAESSVYLQMSGLTPEDTATYYCAAHDGGDWNYHTGMDYWGQGTQVTVSS
B5: SVA02 (VHH, not shown: large carriers)
VHH: QVQLQQSGGGLVQAGGSLRLSCAASGRFFSRQVMGWFRQAPGKDREFVGVISWDNGVTFYSDSVKGRFTMSREIAKKTVHLQMNSLKPEDTAVYYCAAGNALHSRYYSPSKYDYWGPGTQVTVSS
B6: SVA06 (VHH)
VHH: QVQLQESGGRLVQAEDSLRLSCAASGRTFVSYDMGWFRQAPGKEREFVAAINWRGYTTDYVDSVKGRFFISRDIAKSTVYLQMNNLKPEDTAVYYCAARQMSGSSRYSPPGRVGYDFWGQGTQVTVSS

How the values were obtained:
[1] = target: T1, tetanus neurotoxin (TeNT), authentic tetanus holotoxin (Clostridium tetani, UniProt P04958 2-1315); experiment: competition ELISA on TeNT, binder biotinylated; competitor mAb 14F5
[2] = target: T1, tetanus neurotoxin (TeNT), authentic …; experiment: ELISA, TeNT captured with cAb-TT2, biotinylated binder
[3] = target: T1, tetanus neurotoxin (TeNT), authentic …; experiment: competition ELISA on TeNT, binder biotinylated; competitor mAb 11n185
[4] = target: T1, tetanus neurotoxin (TeNT), authentic …; experiment: competition ELISA on TeNT, binder biotinylated; competitor SVT16L
[5] = target: T1, tetanus neurotoxin (TeNT), authentic …; experiment: ELISA, TeNT captured with coated mAb 6E7
[6] = target: T1, tetanus neurotoxin (TeNT), authentic …; experiment: competition ELISA on TeNT, binder biotinylated; competitor SVT03L
[7] = target: T1, tetanus neurotoxin (TeNT), authentic …; experiment: competition ELISA on TeNT, binder biotinylated; competitor SVT34L
[8] = target: T1, tetanus neurotoxin (TeNT), authentic …; experiment: ELISA, directly coated TeNT, unlabelled binder
[9] = target: T1, tetanus neurotoxin (TeNT), authentic …; experiment: competition ELISA on TeNT, binder biotinylated; competitor SVT02L
[10] = target: T1, tetanus neurotoxin (TeNT), authentic …; experiment: GT1b-TeNT inhibition ELISA, unlabelled binder
[11] = target: T1, tetanus neurotoxin (TeNT), authentic …; experiment: ELISA, TeNT captured with cAb-TT2, unlabelled binder
[12] = target: T1, tetanus neurotoxin (TeNT), authentic …; experiment: ELISA, directly coated TeNT, biotinylated binder
[13] = target: T2, recombinant tetanus toxin fragment C (rTTC) (Clostridium tetani, UniProt P04958 865-1315); experiment: ELISA, rTTC captured with coated mAb 6E7
T2 sequence: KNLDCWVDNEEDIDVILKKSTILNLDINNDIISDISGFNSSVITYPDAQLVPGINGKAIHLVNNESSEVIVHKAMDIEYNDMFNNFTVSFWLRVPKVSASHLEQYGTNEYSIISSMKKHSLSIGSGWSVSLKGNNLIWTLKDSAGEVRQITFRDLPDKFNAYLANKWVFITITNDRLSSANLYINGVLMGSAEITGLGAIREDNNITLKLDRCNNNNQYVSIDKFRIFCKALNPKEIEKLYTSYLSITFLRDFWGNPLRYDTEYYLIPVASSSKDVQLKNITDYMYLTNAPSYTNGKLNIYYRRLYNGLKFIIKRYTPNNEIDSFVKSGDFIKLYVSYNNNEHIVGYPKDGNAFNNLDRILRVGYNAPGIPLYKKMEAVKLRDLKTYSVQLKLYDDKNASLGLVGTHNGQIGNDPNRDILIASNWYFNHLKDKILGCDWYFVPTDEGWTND

[14] = target: T1, tetanus neurotoxin (TeNT), authentic …; experiment: competition ELISA on TeNT, binder biotinylated; competitor SVT22L
[15] = target: T1, tetanus neurotoxin (TeNT), authentic …; experiment: GT1b-TeNT inhibition ELISA, EC at A450 0.59
[16] = target: T1, tetanus neurotoxin (TeNT), authentic …; experiment: competition ELISA on TeNT, binder biotinylated; competitor SVT15L-3FW4M
[17] = target: T1, tetanus neurotoxin (TeNT), authentic …; experiment: competition ELISA on TeNT, binder biotinylated; competitor SVT15L
[18] = target: T1, tetanus neurotoxin (TeNT), authentic …; experiment: competition ELISA on TeNT, binder biotinylated; competitor SVT08L
[19] = target: T1, tetanus neurotoxin (TeNT), authentic …; experiment: competition ELISA on TeNT, binder biotinylated; competitor mAb 6E7
[20] = target: T1, tetanus neurotoxin (TeNT), authentic …; experiment: competition ELISA on TeNT, binder biotinylated; competitor SVT13L
[21] = target: T1, tetanus neurotoxin (TeNT), authentic …; experiment: competition ELISA on TeNT, binder biotinylated; competitor SVT06L
[22] = target: T2, recombinant tetanus toxin fragment C …; experiment: ELISA, directly coated rTTC, unlabelled binder
[23] = target: T1, tetanus neurotoxin (TeNT), authentic …; experiment: competition ELISA on TeNT, binder biotinylated; competitor mAb 6F57
[24] = target: T1, tetanus neurotoxin (TeNT), authentic …; experiment: ELISA, directly coated TeNT
dog albumin (dog Alb) [25] = target: T3, dog albumin (dog Alb) (dog, UniProt P49822 25-608); experiment: ELISA: coated dog Alb, anti-his6 PO
T3 construct: also called Canine albumin

dog albumin (dog Alb) [26] = target: T3, dog albumin (dog Alb); experiment: ELISA: coated dog Alb, anti-his6 PO; remark: listed apart in the source
human serum albumin [27] = target: T4, human serum albumin (human, UniProt P02768 25-609); experiment: ELISA, E. coli supernatant
T4 construct: mature; also called human Alb

human serum albumin [28] = target: T4, human serum albumin; experiment: ELISA, coated albumin, E. coli supernatant
dog serum albumin = target: T5, dog serum albumin (dog, UniProt P49822 25-608); experiment: ELISA, coated albumin, E. coli supernatant
T5 construct: mature; also called dog Alb; Canine albumin

horse serum albumin = target: T6, horse serum albumin (horse, UniProt P35747 25-607); experiment: ELISA, coated albumin, E. coli supernatant
T6 construct: mature; also called horse Alb; Equine albumin

Row | Binder | % inhibition of binding [1] | EC resulting in A450 0.2 [2] | maximal absorbance at 450 nm [2] | % inhibition of binding [3] | % inhibition of binding [4] | absorbance at 450 nm [5] | % inhibition of binding [6] | % inhibition of binding [7] | EC resulting in A450 0.2 [8] | maximal absorbance at 450 nm [8] | % inhibition of binding [9] | minimal absorbance at 450 nm [10] | EC resulting in A450 0.15 [11] | maximal absorbance at 450 nm [11] | EC resulting in A450 0.4 [12] | maximal absorbance at 450 nm [12] | binding result (human serum albumin [27]) | absorbance at 450 nm (human serum albumin [28]) | absorbance at 450 nm (dog serum albumin) | absorbance at 450 nm (horse serum albumin) | other results
1 | B1 | 6% | 1.6 ng/mL | 0.971 | -2% | 95% | 1.13 | -1% | 95% | 1.1 ng/mL | 1.57 | 13% | 0.129 | 3.2 ng/mL | 0.363 | 0.52 ng/mL | 1.42 | – | – | – | – | absorbance at 450 nm [13]: 1.38; % inhibition of binding [14]: 96%; concentration giving A450 of 0.59 [15]: 0.047 µg/mL; % inhibition of binding [16]: 17%; % inhibition of binding [17]: 12%; % inhibition of binding [18]: 2%; % inhibition of binding [19]: 6%; % inhibition of binding [20]: 96%; % inhibition of binding [21]: -8%; maximal absorbance at 450 nm [22]: 1.01; % inhibition of binding [23]: 2%; absorbance at 450 nm [24]: 1.27
2 | B2 | – | – | – | – | – | – | – | – | – | – | – | – | – | – | – | – | – | – | – | – | Effective SDA Concentration at A450 0.2 (dog albumin (dog Alb) [25]): 34 ng/mL; maximal absorbance value (dog albumin (dog Alb) [26]): 1.78 A450
3 | B3 | – | – | – | – | – | – | – | – | – | – | – | – | – | – | – | – | no binding | 0.083 A450 | 2.02 A450 | 2.11 A450 | –
4 | B4 | 2% | 3.5 ng/mL | 0.697 | -1% | 3% | 0.236 | -8% | 3% | 3.8 ng/mL | 0.817 | 10% | 0.127 | 9.8 ng/mL | 0.195 | 2 ng/mL | 1.37 | – | – | – | – | absorbance at 450 nm [13]: 0.528; % inhibition of binding [14]: 4%; concentration giving A450 of 0.59 [15]: 0.039 µg/mL; % inhibition of binding [16]: 95%; % inhibition of binding [17]: 96%; % inhibition of binding [18]: 6%; % inhibition of binding [19]: 6%; % inhibition of binding [20]: -5%; % inhibition of binding [21]: 7%; maximal absorbance at 450 nm [22]: 0.206; % inhibition of binding [23]: 6%; absorbance at 450 nm [24]: 0.477
5 | B5 | – | – | – | – | – | – | – | – | – | – | – | – | – | – | – | – | no binding | 0.065 A450 | 1.87 A450 | 1.9 A450 | –
6 | B6 | – | – | – | – | – | – | – | – | – | – | – | – | – | – | – | – | no binding | 0.067 A450 | 1.99 A450 | 1.66 A450 | –
